Source: US20140134180A1 (E R SQUIBB AND SONS L L C, published 2014)

What was measured:
[1] = target: T1, human O8E, full length, on cells (human, UniProt Q7Z7D3 25-282); assay: titration of labelled antibody on O8E-transfected cells, sigmoidal dose response fit; qualitative ranking
T1 construct: also called B7H4; B7S1
T1 sequence: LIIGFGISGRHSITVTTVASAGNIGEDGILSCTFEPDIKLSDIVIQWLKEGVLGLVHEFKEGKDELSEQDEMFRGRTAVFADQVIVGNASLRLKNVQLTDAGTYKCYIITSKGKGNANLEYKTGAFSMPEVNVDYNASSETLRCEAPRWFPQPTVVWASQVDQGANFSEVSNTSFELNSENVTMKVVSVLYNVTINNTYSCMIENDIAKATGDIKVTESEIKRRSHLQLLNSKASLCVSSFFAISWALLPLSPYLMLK
Protocol: (§1) HEK cells were transfected with full length O8E using standard techniques and grown in RPMI media containing 10% fetal bovine serum (FBS). […] Millipore plates (MAFB NOB) were coated with 1% nonfat dry milk in water and stored a 4° C. overnight. The plates were washed three times with 0.2 ml of binding buffer. Fifty microliters of buffer alone was added to the maximum binding wells (total binding). Twenty-five microliters of buffer alone was added to the control wells (non-specific binding). Varying concentration of ¹²⁵I-anti-O8E antibody was added to all wells in a volume of 25 μl. (In some cases FITC labeled antibodies were used for the titration since unlabeled material was not available, binding may be compromised in these instances.) Varying concentrations of unlabeled antibody at 100 fold excess was added in a volume of 25 μl to control wells and 25 μl of O8E transfected CHO cells (2×10⁶ cells/ml) in binding buffer were added to all wells. The plates were incubated for 2 hours at 200 RPM on a shaker at 4° C. At the completion of the incubation the Millipore plates were washed three times with 0.2 ml of cold wash buffer (24 mM Tris pH 7.2, 500 mM NaCl, 2.7 mM KCl, 2 mM Glucose, 1 mM CaCl₂, 1 mM MgCl₂, 0.1% BSA.). The filters were removed and counted in a gamma counter. […]

Penta-B7H4 = target: T2, Penta-B7H4 ( for this construct); assay: ELISA: anti-mouse Fc coat, monoclonal anti-C9 (0.6 ug/ml), Penta-B7H4 titrated 4000 to 2.0 ng/ml, human antibody at 1 ug/ml; the value is a concentration of Penta-B7H4, not of antibody [panel B]
T2 construct: also called Penta-O8E; Penta-B7H4-C9
Protocol: An ELISA plate was coated with anti-mouse Fc, followed by monoclonal anti-C9 (0.6 ug/ml), then titrated Penta-B7H4 as indicated, then the human antibodies at 1 ug/ml.

[2] = target: T1, human O8E, full length, on cells; assay: titration of labelled antibody on O8E-transfected cells, sigmoidal dose response fit; bottom and top fixed for incomplete curve; qualitative ranking
Protocol: as §1

[3] = target: T1, human O8E, full length, on cells; assay: titration of labelled antibody on O8E-transfected cells, sigmoidal dose response fit; FITC-labelled antibody; qualitative ranking
Protocol: as §1

B1: 13D12 human monoclonal antibody (antibody, V domains shown)
VH: QVQLQQWGAGLLKPSETLSLTCAVYGGSFSGYYWSWIRQPPGKGLEWIGKINHSGSTNYNPSLKSRVTISVDTSKNQFSLKLNSVTAADTAVYYCARELRYFENYYYGMDVWGQGTTVTVSS
VL: not shown
notes: Human IgG from a hybridoma of mice carrying a human kappa transgene; also called 13D12.G10
EC50 [1]: 0.746 nM

B2: 12E1 human monoclonal antibody (antibody, V domains shown)
VH: EVQLVESGGGLVQPGRSLRLSCVASGFTFDDYAMHWVRQAPGKGLEWVSGISWNSGSIGYADSVKGRFTISRDNAKNSLYLQMNSLRAEDTALYYCTKALYGSGSSDFYYYGMDVWGQGTTVAVSS
VL: EIVLTQSPATLSLSPGERATLSCRASQSVSSYLAWYQQKPGQAPRLLIYDASNRATGIPARFSGSGSGTDFTLTISSLEPEDFAVYYCQQRRTFGQGTKVEIK
notes: Human IgG from a hybridoma of mice carrying a human kappa transgene; also called 12E1.G9
EC50 (read off the curve) (Penta-B7H4): ~0.05 µg/mL | EC50 [2]: ~19.8 nM

B3: 2A7 human monoclonal antibody (antibody, V domains shown)
VH: EVQLVESGGGLIQPGGSLRLSCAASGFTVSSNYMNWVRQAPGKGLEWVSVIYGSGRTYYADSVKGRVTISRDNSKNTLYLQMNSLRAEDTAVYYCARDTYAMDVWGQGTTVTVSS
VL: not shown
notes: Human IgG from a hybridoma of mice carrying a human kappa transgene; Fitcylated for immunohistochemistry; also called 2A7.C11; 2A7/C11
EC50 (read off the curve) (Penta-B7H4): ~0.04 µg/mL

B4: 1G11 human monoclonal antibody (antibody, V domains shown)
VH: QVQLQQWGAGLLKPSETLSLTCAVYGGSFSDYFWTWIRQPPGKGLEWIGEINHSGTTNYNPSLKSRVTISADTSKNQFSLRLSSVTAADTAVYYCARLSSWSNWAFEYWGQGTLVTVSS
VL: EIVLTQFPGTLSLSPGERATLSCRASQSVSSTYLAWYQQKPGQAPRVLIYGASRRATGIPDRFSGSGSGTDFTLTISRLEPEDFAVYYCQQYGSSPLTFGGGTKVEIK
notes: Human IgG from a hybridoma of mice carrying a human kappa transgene; also called 1G11.H11-FITC; 1G11.H1
EC50 [3]: 1.69 nM
